Data as given in article PMC10643666.

Target: ZIKV envelope (E) protein, HA-tagged
Experiment: co-immunoprecipitation (HA-specific IP) with densitometry of immunoblots
Conditions: HEK 293T cells, lysed 18 h after transfection; n = 4; parent: est. 0.93; read off a plot

Row | Substance | ratio to parent (fold E; mut:WT)
1 | ZIKV prM protein, wild type K60L; Y63A | 1.7
2 | ZIKV prM protein, wild type K60L; Y63S | 0.9
3 | ZIKV prM protein, wild type R38L; F42A | 1.6
4 | ZIKV prM protein, wild type R38L; F42S | 0.93
